Patent US20130171170A1 (published 2013)

How the values were obtained:
[1] = molecular target: T1, CD22 variant lacking domain 1 (Δ1), expressed on CHO cells (human, UniProt P20273 139-847); assay: flow cytometry on CHO cells expressing the CD22 deletion variant; goat anti-mouse IgG Alexa 488
T1 construct: Membrane protein on stably transformed CHO cells; Numbering of full length precursor CD22beta (Wilson et al. 1991); also called CD22 lacking domain 1
T1 chain: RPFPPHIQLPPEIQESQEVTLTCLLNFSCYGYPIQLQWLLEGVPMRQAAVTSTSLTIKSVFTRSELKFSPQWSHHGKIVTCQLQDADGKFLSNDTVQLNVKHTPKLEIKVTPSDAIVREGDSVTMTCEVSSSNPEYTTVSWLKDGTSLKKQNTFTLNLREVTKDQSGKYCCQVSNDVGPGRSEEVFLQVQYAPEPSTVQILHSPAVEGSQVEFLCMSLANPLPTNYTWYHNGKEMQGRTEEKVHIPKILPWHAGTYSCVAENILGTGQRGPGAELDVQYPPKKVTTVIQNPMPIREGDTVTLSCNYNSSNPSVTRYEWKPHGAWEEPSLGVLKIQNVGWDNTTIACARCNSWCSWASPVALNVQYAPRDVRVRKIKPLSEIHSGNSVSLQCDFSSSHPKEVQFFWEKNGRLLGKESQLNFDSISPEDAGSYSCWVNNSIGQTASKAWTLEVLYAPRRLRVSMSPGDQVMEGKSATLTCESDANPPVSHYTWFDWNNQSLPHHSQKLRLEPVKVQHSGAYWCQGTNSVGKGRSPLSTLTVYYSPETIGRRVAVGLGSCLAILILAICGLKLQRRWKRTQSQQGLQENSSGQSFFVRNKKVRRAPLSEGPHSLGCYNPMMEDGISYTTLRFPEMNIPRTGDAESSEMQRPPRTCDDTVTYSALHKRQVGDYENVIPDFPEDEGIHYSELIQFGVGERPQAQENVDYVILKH
Experimental: CD22 sequences lacking various of the seven immunoglobulin-like domains of the major CD22 isoform (CD22beta) were cloned and transformed into cells for stable expression. For example, CD22 variants lacking domain 1 (Δ1), domain 2 (Δ2), or domains 3 and 4 (Δ3,4) were cloned, transformed into CHO cells, and expressed on the cells. Control cells expressed CD22beta. Deletions were performed using Stratagene QuikChange XL™ reagent kit. Deletion of domain 1 was performed by deletion of amino acids 22-138; deletion of domain 2 was performed by deletion of amino acids 139-242; and deleted domains 3 and 4 were available as the minor isoform CD22alpha (deletion of amino acids 241-417). All amino acid numbers refer to the numbering of full length precursor CD22beta by Wilson, G. L. et al. (see FIG. 1 in Wilson, G. L. et al., J. Exp. Med. 173:137-146 (1991)). FIG. 14 is a diagram of the deleted domains. Binding was determined by flow cytometry using an isotype control. […] Binding of 5E8.1.8 was detected using biotinylated goat anti-mouse IgG plus streptavidin PE.

[2] = molecular target: T2, cynomolgus monkey (cyno) CD22 expressed on the surface of CHO cells (cynomolgus monkey); assay: cell-based competitive binding of 125I-labelled against unlabelled antibody on CHO cells, 4 h at 4 C, Scatchard analysis
T2 construct: residues 1-19 (signal) should be removed
T2 chain: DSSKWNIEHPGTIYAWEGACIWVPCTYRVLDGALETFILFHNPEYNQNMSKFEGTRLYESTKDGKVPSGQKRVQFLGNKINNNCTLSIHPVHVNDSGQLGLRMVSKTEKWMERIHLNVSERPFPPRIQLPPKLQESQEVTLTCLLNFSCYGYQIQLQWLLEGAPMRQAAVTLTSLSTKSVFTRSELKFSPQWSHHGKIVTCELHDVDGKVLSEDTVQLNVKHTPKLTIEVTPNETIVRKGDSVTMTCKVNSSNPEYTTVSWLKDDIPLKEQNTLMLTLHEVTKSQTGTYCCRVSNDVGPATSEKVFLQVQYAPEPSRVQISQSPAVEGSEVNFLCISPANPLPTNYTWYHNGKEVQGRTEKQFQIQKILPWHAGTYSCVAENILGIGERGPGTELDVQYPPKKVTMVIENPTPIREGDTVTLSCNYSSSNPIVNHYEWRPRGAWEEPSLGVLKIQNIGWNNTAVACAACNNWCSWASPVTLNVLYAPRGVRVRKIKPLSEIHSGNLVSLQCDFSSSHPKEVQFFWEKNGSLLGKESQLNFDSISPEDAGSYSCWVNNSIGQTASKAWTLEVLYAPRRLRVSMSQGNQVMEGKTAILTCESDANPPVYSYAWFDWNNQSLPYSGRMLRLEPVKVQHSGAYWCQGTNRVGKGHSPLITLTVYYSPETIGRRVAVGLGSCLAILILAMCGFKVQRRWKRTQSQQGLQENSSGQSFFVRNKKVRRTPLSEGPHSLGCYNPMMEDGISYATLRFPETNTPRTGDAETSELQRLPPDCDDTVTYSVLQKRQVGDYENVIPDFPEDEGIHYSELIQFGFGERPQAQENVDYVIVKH
Experimental: (§1) Briefly, CHO cells stably expressing full length human CD22 (SEQ ID NO:27) or cynomolgus monkey (cyno) CD22 (SEQ ID NO:31). […] A cell-based, competitive binding assay was performed using serially diluted, unlabeled anti-CD22 antibody. Antibodies were allowed to bind to the cells for 4 hours at 4° C. Binding affinity, KD, of the antibodies was determined in accordance with standard Scatchard analysis performed utilizing a non-linear curve fitting program (see, for example, Munson et al., Anal Biochem, 107: 220-239, 1980).

[3] = molecular target: T3, full length human CD22 (CD22beta) expressed on the surface of CHO cells (human, UniProt P20273 22-847); assay: as above
T3 construct: CHO cells stably expressing full length human CD22; also called CD22beta (control cells)
Experimental: as §1

binding result [1]: no binding
Kd [2]: 2.3 nM
Kd [3]: 2.4 nM
B1: murine anti-human CD22 10F4.4.1 monoclonal antibody (antibody, V domains shown)
VH: QVQLQQSGPELVKPGASVKISCKASGYEFSRSWMNWVKQRPGQGREWIGRIYPGDGDTNYSGKFKGKATLTADKSSSTAYMQLSSLTSVDSAVYFCARDGSSWDWYFDVWGAGTTVTVSS
VL: DILMTQTPLSLPVSLGDQASISCRSSQSIVHSNGNTFLEWYLQKPGQSPKLLIYKVSNRFSGVPDRFSGSGSGTDFTLKISRVEAEDLGVYYCFQGSQFPYTFGGGTKVEIK
notes: Murine hybridoma antibody (ATCC PTA-7621); also called mu 10F4; Mu 10F4.4.1
